{"source": "paper PMC12034804", "key": {"[1]": {"biological_target": "eGFP-CD24 (CD24 fused with eGFP at the N-terminus), on CHO-CD24 cells (UniProt P25063)"}, "[2]": {"biological_target": "enhanced green fluorescent protein (eGFP) [GFP: P42212]", "experiment": "BLI; ForteBio sensors loaded with 20 nM solutions, baseline in PBS with 1 mg/ml BSA, single concentration of analyte, 1000 rpm, 1:1 binding model, Kd from kd : ka; the section's heading calls it isothermal titration calorimetry; who was on the sensor is not told"}, "[3]": {"biological_target": "de-N-glycosylated eGFP-CD24, on CHO-CD24 cells treated with nbGFP-PNGF (UniProt P25063)", "experiment": "flow cytometry on cells; CHO-CD24 cells incubated with 5 nM PNGF or nbGFP-PNGF for 2 hours, with or without 50 µM P-3Fax-Neu5Ac; bound enzyme dissociated in acidic buffer (100 mM Glycine, 150 mM NaCl, pH 3.0, 0.1% Tween-20) for 2 min; then human Siglec-10 Fc chimera, biotin anti-human IgG Fc, Cy5-streptavidin"}, "[4]": {"biological_target": "eGFP-CD24 (CD24 fused with eGFP at the N-terminus), on CHO-CD24 cells (UniProt P25063)", "remark": "listed apart in the source"}}, "data": [{"molecule": "nbGFP-PNGF (Peptide-N-glycosidase F fused to an N-terminal nanobody against eGFP)", "values": [{"measurement": "de-N-glycosylation of eGFP-CD24 on CHO cells (western blot, 2 h): concentration at which it is complete; 500 nM PNGF without the nanobody could not", "setting": "[1]", "result": 5, "unit": "nM"}, {"measurement": "Kd", "setting": "[2]", "result": 5.58, "unit": "nM"}]}, {"molecule": "recombinant human Siglec-10 Fc chimera (Fc fusion) MDGRFWIRVQESVMVPEGLCISVPCSFSYPRQDWTGSTPAYGYWFKAVTETTKGAPVATNHQSREVEMSTRGRFQLTGDPAKGNCSLVIRDAQMQDESQYFFRVERGSYVRYNFMNDGFFLKVTALTQKPDVYIPETLEPGQPVTVICVFNWAFEECPPPSFSWTGAALSSQGTKPTTSHFSVLSFTPRPQDHNTDLTCHVDFSRKGVSAQRTVRLRVAYAPRDLVISISRDNTPALEPQPQGNVPYLEAQKGQFLRLLCAADSQPPATLSWVLQNRVLSSSHPWGPRPLGLELPGVKAGDSGRYTCRAENRLGSQQRALDLSVQYPPENLRVMVSQANRTVLENLGNGTSLPVLEGQSLCLVCVTHSSPPARLSWTQRGQVLSPSQPSDPGVLELPRVQVEHEGEFTCHARHPLGSQHVSLSLSVHYSPKLLGPSCSWEAEGLHCSCSSQASPAPSLRWWLGEELLEGNSSQDSFEVTPSSAGPWANSSLSLHGGLSSGLRLRCEAWNVHGAQSGSILQLPDKKGLISTAFSN", "values": [{"measurement": "percent of the CD24/Siglec-10 interaction that is due to the N-glycans (lost on de-N-glycosylation)", "setting": "[3]", "result": "> 82", "unit": "%"}, {"measurement": "phagocytosis of CHO-CD24 cells by mouse bone marrow-derived macrophages after treatment with nbGFP-PNGF, against control (flow cytometry)", "setting": "[4]", "result": 0.5, "unit": "fold"}]}]}
